# Source: patent publication US4746508A, “Drug administration” (Beth Israel Hospital Assn., priority 1984, dated 1988)
# Key:
# [1] = HPLC k' factor value (hydrophobicity) of unconjugated steroid; format: physicochemical; conditions: octadecylsilane column, 75% methanol in water, apparent pH 5.0
# Protocol: Preferably the steroid used in the invention is characterized in that the unconjugated derivative of the steroid is retained on a hydrophobic column for a length of time sufficient to produce a k' factor value of at least about 4, the k' factor value being obtained by subjecting a monomeric solution of 1 mg/ml of such steroid derivative to high-performance liquid column chromatography at 3,000 psi, using a 250×4.6 mm column having octadecylsilane-coated 5 μm silica particles as the stationary phase and a mobile phase, delivered at 1.0 ml/min., consisting of 75% methanol in ater, v/v, buffered with 0.005M KH2 PO4 /H3 PO4 to give an apparent pH value, as measured using a glass electrode, of 5.0, the k' factor value being defined by [formula] where t0 is the retention time in the column of the solvent front and tr is the retention time in the column of the steroid derivative as measured by obtaining the elution profile of the steroid derivative by absorbance at 210 nm.
# The structure of the steroid molecule affects its chemical properties and thus its functioning as a drug transporting molecule. We believe that all of the steroid molecules used in the invention facilitate transport by self-associating to form reversed micelles within the membrane across which the drug is being transported; these reversed micelles, it is believed, function as pores, allowing the drug to pass through. A measure of a given steroid molecule's ability to form such reversed micelles is the hydrophobicity of the unconjugated form of the molecule, a property which can be quantified using the k' factor value, which is computed by observing the steroid's retention time in a high-performance liquid chromatography (HPLC) column under the conditions described above. As mentioned above, the k' value of the unconjugated derivative of the steroid should be at least about 4 for the steroid to be suitable in the therapeutic compositions of the invention.
# The k' and CMT of the steroids used in the compositions of the invention are influenced by whether the steroid is conjugated at C21 and, if so, by the nature of the conjugating group. Additionally, a polar group at position 16 is essential for solubility (See position E on formula 1). Because the k' factor value is influenced by the polarity of any conjugating group, unconjugated derivatives must be used in numerical comparisons involving steroids which are conjugated with different groups, or comparisons involving both conjugated and unconjugated steroids. Overall hydrophobicity and k' factor value generally decrease as the polarity of the conjugating group increases. However, such decrease is not a reflection of the hydrophobicity of the steroid nucleus. […]
# [2] = in vivo
# Protocol: Corticotropin releasing-factor (CRF, a hormone of MW 4,000) (Dr. George Chrousos, National Institute of Health, Bethesda, MD) was dissolved in 0.15 NaCl and mixed with the 2% solution of sodium tauro-24,25-dihydrofusidate. CRF was also prepared without adjuvant. Two sheep were administered 350 mg ketamine intravenously and a total of 460 μg of CRF as a liquid, by drops into each side of the nose of the sheep at time 0. The dose of CRF was approximately 10 μg/kg body weight.
# [3] = Intranasal administration of proinsulin to sheep (insulin RIA adjusted for cross-reactivity); format: in vivo; conditions: for Proinsulin (μU/ml above baseline): Sheep 196 Study 25, 1.5 mg into each nostril
# Protocol: Commercially available proinsulin (Eli Lilly & Co., Indianapolis, Ind.) was mixed with the sodium tauro-24,25-dihydrofusidate solution or in 0.15M NaCl, pH 7.6 to give a final concentration of 6 mg/ml of proinsulin and 1% (w/v) sodium tauro-24,25-dihydrofusidate. Sheep were administered by nasal drops 1.5 mg (250 μl) of the solution into each nostril at time 0. Sheep 25 was administered proinsulin without adjuvant as described above.
compound,measurement,setting,value
CC(=O)OC1CC2(C)C(CC(O)C3C4(C)CCC(OC(C)=O)C(C)C4CCC32C)C1=C(CCC=C(C)C)C(=O)O (stereo not drawn) [3-acetoxyl-fusidic acid],k' factor value,[1],26.4
"CC(=O)O[C@H]1C[C@@]2(C)[C@@H](C[C@@H](O)[C@H]3[C@@]4(C)CC[C@@H](O)[C@@H](C)[C@@H]4CC[C@@]32C)/C1=C(\CCCC(C)C)C(=O)O [24,25-dihydrofusidic acid]",k' factor value,[1],27.1
CC(=O)O[C@@H]1[C@H]2[C@H](C)[C@H](O)CC[C@]2(C)[C@@H]2CC[C@H]3/C(=C(\CCC=C(C)C)C(=O)O)[C@@H](OC(C)=O)C[C@]3(C)[C@@]2(C)[C@H]1O [cephalosporin P1],k' factor value,[1],9.5
"CC(=O)O[C@H]1C[C@@]2(C)[C@@H](C[C@@H](O)[C@H]3[C@@]4(C)CC[C@@H](O)[C@@H](C)[C@@H]4CC[C@@]32C)/C1=C(\CCC=C(C)C)C(=O)O [fusidic acid, reference compound]",k' factor value,[1],20.7
"Corticotropin releasing-factor without tauro-24,25-dihydrofusidate: corticotropin releasing-factor, a hormone of MW 4,000, prepared without adjuvant",increase of CRF level,[2],increased only slightly
"Proinsulin without sodium tauro-24,25-dihydrofusidate: commercially available proinsulin (Eli Lilly) in 0.15M NaCl, pH 7.6, without adjuvant",Proinsulin (μU/ml above baseline),[3]; 0 min,0 μU/ml
same,Proinsulin (μU/ml above baseline),[3]; 10 min,2.8 μU/ml
same,Proinsulin (μU/ml above baseline),[3]; 15 min,28 μU/ml
same,Proinsulin (μU/ml above baseline),[3]; 20 min,56 μU/ml
same,Proinsulin (μU/ml above baseline),[3]; 30 min,22 μU/ml
same,Proinsulin (μU/ml above baseline),[3]; 60 min,0 μU/ml
same,Proinsulin (μU/ml above baseline),[3]; 90 min,0 μU/ml
same,Proinsulin (μU/ml above baseline),[3]; 120 min,0 μU/ml
same,Proinsulin (μU/ml above baseline),[3]; 180 min,0 μU/ml
same,Proinsulin (μU/ml above baseline),[3]; 240 min,2.8 μU/ml
same,Proinsulin (μU/ml above baseline),[3]; +5 min,0 μU/ml
same,Proinsulin (μU/ml above baseline),[3]; -15 min,0 μU/ml
same,absorption of nasally administered proinsulin,"[3]; sheep, nasal drops",absorbed at a slower rate and to a much reduced extent
